According to patent publication US20250026820A1 (WUHAN YZY BIOPHARMA, published 2025):
Numbering of substitutions follows the chain as printed.

T1: TGFβ2 protein (GenScript Z03429) (human, UniProt P61812 303-414)
T1 construct: also called human TGF-β2
T1 sequence (looked up): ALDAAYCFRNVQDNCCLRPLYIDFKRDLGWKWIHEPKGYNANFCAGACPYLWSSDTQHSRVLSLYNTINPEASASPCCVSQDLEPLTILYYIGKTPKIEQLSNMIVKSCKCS

T2: TGFβ3 protein (GenScript Z03430) (human, UniProt P10600 301-412)
T2 construct: also called human TGF-β3
T2 sequence (looked up): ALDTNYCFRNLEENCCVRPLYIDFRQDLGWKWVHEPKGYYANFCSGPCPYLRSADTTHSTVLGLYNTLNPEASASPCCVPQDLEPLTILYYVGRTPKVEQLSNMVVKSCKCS

B1: B1B7 heavy chain single-domain antibody (VHH)
VHH: QVQLVESGGGLVQPGGSLTLSCTASGSMFSFYTMGWYRQATGKQRELVAGISLGGETTYAPSVKDRFTISRDNAKNTVYLQMNSLKPEDTALYNCNAYWGEDYWGQGTQVTVSS
notes: Tested as crude supernatant of IPTG-induced E. coli TG1 carrying the pComb3XSS clone
B2: B1C5 heavy chain single-domain antibody (VHH)
VHH: EVQLVESGGGEVRPGGSLRLSCVVSGFTKDYGAIGWFRQAPGQEREGLGCIARKDGDTWSADSVKGRFTISRDNVRNTVYLQMNALKPEDRGVYYCAGDPSALYGCSDRSSEYQYWGQGTQVTVSS
notes: as for B1
B3: B2A9 heavy chain single-domain antibody (VHH)
VHH: QLQLVESGGGLVQPGGSLRLSCTASGSTFEIYPIYAMAWFRQTPGKQRELVALTTDVKTNYADSVKGRFTISRDNAKNTVYLQMNMLQPEDTAVYVCNVGVVRGGLQNYWGQGTQVTVSS
notes: as for B1
B4: B3D6 heavy chain single-domain antibody (VHH)
VHH: EVQLVESGGGLVQAGGSLRLSCAASGRSFSSLAVGWFRQPPGKKREIVAAVNWSGTSTYYPDSVKGRFSISRDNTKNTVYLQMNSLKPEDTAVYYCAADPDLRWLKLWGYEYWGQGTQVTVSS
notes: as for B1
B5: B2A1 heavy chain single-domain antibody (VHH)
VHH: QVQLVESGGGLVQPGGSLRLSCAASGITFSHYDMAWFRQAPEKQRELVALITSGGKTAYADSVKGRFAISRDNAKNTVYLQMNSLKAGDTAVYYCNAHWVLTSQYWGQGTQVTVSS
notes: as for B1
B6: B1B8 heavy chain single-domain antibody (VHH)
VHH: EVQVVESGGGLVQPGGSLTLSCVASGFAFSFTPMRWVRQAPGKGLEWVSSISIRGDTTDYADSVKGRFTISRDNAKNTLYLQMNSLKPEDTAVYYCSRGSSISTSTERTQGTQVTVSS
notes: as for B1
B7: B2F6 heavy chain single-domain antibody (VHH)
VHH: EVQLVESGGGLVQPGGSLRLSCAASGFTFSYYVASWYRQAPGKERELVATTFPPDGSPHYADSVKGRFAISRDNAKNTVFLQMDSLKSEDTAVYYCNARRVEGHGIYWGQGTQVTVSS
B8: B3D2 heavy chain single-domain antibody (VHH)
VHH: QLQLVESGGGLVQPGGSLTLSCLASGFTFSHYPMSWVRQAPGKGLEWVSVIGSDGAIKHYSDSVKGRFAISRDNAKNTLYLQMNSLKPEDTAVYYCAEGDSRYVRNRARGQGTQVTVSS
notes: as for B1
B9: B3C5 heavy chain single-domain antibody (VHH)
VHH: B8 VHH with L23A, A56G, I57T, H59I, S71A, N106G, A108T
B10: B3F1 heavy chain single-domain antibody (VHH)
VHH: B8 VHH with L23A, H31L, A56G, I57T, N106G, A108T
B11: B2H1 heavy chain single-domain antibody (VHH)
VHH: QLQLVESGGGLVQPGESLRLSCAASGIIFSASTMAWFRQAPGKQRELVALITDGDRTNYADSVKGRFTISRDNAENTVYLQMTELKFEDTAVYYCNAFWLKAYWGQGTQVTVSS
notes: as for B1
B12: B2A2 heavy chain single-domain antibody (VHH)
VHH: EVQVVESGGAAVQPGESLRLSCAASGSIFNTATMGWFRQAPGKQREMVAIITDGGRTNYADSVKGRFTISRDATKNTVYLQMNSLNPGDTAVYYCNALTIVPRSSIYWGQGTQVTVSS
notes: as for B1
B13: B2C9 heavy chain single-domain antibody (VHH)
VHH: EVQVVESGGGLVQPGGSLRLSCAASASVFSWSVMGWFRQAPGKQRELVAISSGDRETYADSVKGRFTISRDNAKNTVYLQMDTLKPEDTAVYFCNAYVPVGESRGDYWGQGTQVTVSS
notes: as for B1
B14: B2C2 heavy chain single-domain antibody (VHH)
VHH: QLQLVESGGGLVQPGGSLRLSCAGSGIAFSRVTMAWSRQAPGKQRELVALITDGNRSAYVDSVKGRFTISRDNTKKTMSLQMNDLKPEDTAVYYCVATDWVPTRRDYWGQGTQVTVSS
notes: as for B1
B15: B2G8 heavy chain single-domain antibody (VHH)
VHH: QVQLVESGGGLVQPGGSLRLSCAASGISFSYYDMGWFRQAPGKQRELVAIVTSGGRTNYADSVKGRFTISRETAKSTMYLQMNSLKSEDTGVYYCNAHWIVTTDYWGQGTQVTVAS
notes: as for B1
B16: B1F8 heavy chain single-domain antibody (VHH)
VHH: QVQLVESGGGLVQPGGSLRLSCAASGSIFGVFYMGWFRQAPGKQREMVAISTDDRTSYVDSVKGRFTISRDNAKNTLALQMNSLKPEDTAVYFCNLNQLGTDYWGPGTQVTVSS
notes: Tested as crude supernatant of IPTG-induced E. coli TG1 carrying the pComb3XSS clone; also called BIF8
B17: B3F3 heavy chain single-domain antibody (VHH)
VHH: B16 VHH with G16E, A23T, E46D, V59A
notes: as for B1
B18: B2A9 anti-TGFβ single domain heavy-chain antibody (variable region, linker peptide, human IgG1 heavy chain constant region) (Fc fusion)
heavy: B3 VHH
notes: not shown: linker peptide (GGGGS)n, n=1, 2 or 3; human IgG1 heavy chain constant region, GenBank No. AK303185.1
B19: B2A1 anti-TGFβ single domain heavy-chain antibody (variable region, linker peptide, human IgG1 heavy chain constant region) (Fc fusion)
heavy: B5 VHH
notes: as for B18
B20: B1B8 anti-TGFβ single domain heavy-chain antibody (variable region, linker peptide, human IgG1 heavy chain constant region) (Fc fusion)
heavy: B6 VHH
notes: as for B18
B21: B2C9 anti-TGFβ single domain heavy-chain antibody (variable region, linker peptide, human IgG1 heavy chain constant region) (Fc fusion)
heavy: B13 VHH
notes: as for B18
B22: B2F6 anti-TGFβ single domain heavy-chain antibody (variable region, linker peptide, human IgG1 heavy chain constant region) (Fc fusion)
heavy: B7 VHH
notes: as for B18
B23: B3F1 anti-TGFβ single domain heavy-chain antibody (variable region, linker peptide, human IgG1 heavy chain constant region) (Fc fusion)
heavy: B8 VHH with L23A, H31L, A56G, I57T, N106G, A108T
notes: as for B18
B24: B3C5 anti-TGFβ single domain heavy-chain antibody (variable region, linker peptide, human IgG1 heavy chain constant region) (Fc fusion)
heavy: B8 VHH with L23A, A56G, I57T, H59I, S71A, N106G, A108T
notes: as for B18

target: BSA (UniProt P02769); assay: ELISA; plate coated with BSA (control); E. coli supernatant; HRP anti-VHH
Sequence (P02769 25-607 limits assumed): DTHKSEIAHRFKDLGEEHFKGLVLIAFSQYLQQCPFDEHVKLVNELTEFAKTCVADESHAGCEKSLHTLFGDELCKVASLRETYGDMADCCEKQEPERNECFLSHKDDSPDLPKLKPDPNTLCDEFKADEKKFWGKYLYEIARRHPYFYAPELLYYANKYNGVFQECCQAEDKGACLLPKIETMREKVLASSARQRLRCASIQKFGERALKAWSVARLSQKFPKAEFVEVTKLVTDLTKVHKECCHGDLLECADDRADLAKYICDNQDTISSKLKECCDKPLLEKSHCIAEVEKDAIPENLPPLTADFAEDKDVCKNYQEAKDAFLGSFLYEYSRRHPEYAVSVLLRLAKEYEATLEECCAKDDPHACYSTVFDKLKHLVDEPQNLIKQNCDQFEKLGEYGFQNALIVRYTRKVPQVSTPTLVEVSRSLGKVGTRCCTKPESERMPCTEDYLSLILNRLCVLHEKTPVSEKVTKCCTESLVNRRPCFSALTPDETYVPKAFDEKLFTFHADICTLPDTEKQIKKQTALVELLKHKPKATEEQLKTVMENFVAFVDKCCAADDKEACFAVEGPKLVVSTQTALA

OD value of binding to BSA	Binder
0.067 OD 450 nm	B1
0.052 OD 450 nm	B2
0.061 OD 450 nm	B3
0.067 OD 450 nm	B4
0.057 OD 450 nm	B5
0.063 OD 450 nm	B6
0.053 OD 450 nm	B7
0.061 OD 450 nm	B8
0.051 OD 450 nm	B9
0.051 OD 450 nm	B10
0.057 OD 450 nm	B11
0.064 OD 450 nm	B12
0.055 OD 450 nm	B13
0.058 OD 450 nm	B14
0.064 OD 450 nm	B15
0.07 OD 450 nm	B16
0.071 OD 450 nm	B17

target: T3, TGFβ1 protein (GenScript Z03411) (human, UniProt P01137 279-390); assay: ELISA; plate coated with TGFβ1; E. coli supernatant; HRP anti-VHH
T3 construct: also called human TGF-β1; TGFβ1 antigen
T3 sequence (P01137 279-390 limits assumed, one chain of several): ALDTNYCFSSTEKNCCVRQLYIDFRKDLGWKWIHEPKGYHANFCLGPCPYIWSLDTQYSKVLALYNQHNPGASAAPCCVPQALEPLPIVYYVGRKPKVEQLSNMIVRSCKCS
Experimental: A microplate was coated with 2 μL/well of the TGFβ1 protein solution and BSA, respectively, at 4° C. overnight; the supernatant was discarded, 300 μL of a blocking solution (PBS containing 3% BSA) was added to each well, and the plate was blocked at 37° C. for 2 h; the supernatant collected by centrifugation was added to the well of the microplate at 200 μL per well, the plate was left to stand and incubated at room temperature for 2 h, and the supernatant was discarded; the plate was washed for 3 times with 200 μL/well PBST (PBS containing 0.1% Tween 20); a diluted HRP-labeled anti-VHH secondary antibody (Genscript, A01861) was added, the secondary antibody was used after a 1:10000 dilution, the diluent was PBS containing 1% BSA, the volume was 100 μL/well, and the plate was incubated at room temperature for 1 h; the plate was washed for 5 times with 200 μL/well PBST; a TMB chromogenic solution (BD, 55214) was added at 100 μL/well for color development at 37° C. for 8 min. 2 M HCl stop solution was added at 100 μL/well. After the addition of the stop solution, the 450 nm values were read using a microplate reader within 30 min.

OD value of binding to TGFβ1	Binder
1.95 OD 450 nm	B1
2.08 OD 450 nm	B2
1.92 OD 450 nm	B3
1.65 OD 450 nm	B4
1.29 OD 450 nm	B5
1.92 OD 450 nm	B6
1.99 OD 450 nm	B8
2.06 OD 450 nm	B11
1.69 OD 450 nm	B12
1.88 OD 450 nm	B13
2.05 OD 450 nm	B14
1.85 OD 450 nm	B15
1.03 OD 450 nm	B16
2.29 OD 450 nm	B17

target: T3, TGFβ1 protein (GenScript Z03411); assay: ELISA; plate coated with human TGF-β1; antibody titrated; HRP anti-human Fc
Experimental: (§1) A microplate was coated with 2 μL/well of the human TGF-β1/2/3 protein solution, respectively, at 4° C. overnight; the supernatant was discarded, 300 μL of a blocking solution (PBS containing 3% BSA) was added to each well, and the plate was blocked at 37° C. for 2 h; the antibodies were gradiently diluted, and the diluent was PBS containing 1% BSA. For example, the initial concentration of the antibody dilution was 500 nM, and diluted 10-fold to obtain 8 concentration gradients. The diluted antibody was added to the well of the microplate at 200 μL per well, the plate was left to stand and incubated at room temperature for 2 h, and the supernatant was discarded; the plate was washed for 3 times with 200 μL/well PBST (PBS containing 0.1% Tween 20); a diluted HRP-labeled anti-human Fc secondary antibody (SIGMA, A8667) was added, the secondary antibody was used after a 1:20000 dilution, the diluent was PBS containing 1% BSA, the volume was 100 μL/well, and the plate was incubated at room temperature for 1 h; the plate was washed for 5 times with 200 μL/well PBST; a TMB chromogenic solution (BD, 55214) was added at 100 μL/well for color development at 37° C. for 8 min. 2 M HCl stop solution was added at 100 μL/well. After the addition of the stop solution, the 450 nm values were read using a microplate reader within 30 min. Data were analyzed using GraphPad Prism 6.0 software and avidity fitting was performed to give EC50 values.

EC50	Binder
5.43 nM	B18
3.82 nM	B19
0.533 nM	B20
4.83 nM	B21

target: T1, TGFβ2 protein (GenScript Z03429); assay: ELISA; plate coated with human TGF-β2; antibody titrated; HRP anti-human Fc
Experimental: as §1

EC50	Binder
1.25 nM	B18
1.07 nM	B19
0.464 nM	B20
0.774 nM	B22
148 nM	B23
3.52 nM	B24
1.42 nM	B21

target: T2, TGFβ3 protein (GenScript Z03430); assay: ELISA; plate coated with human TGF-β3; antibody titrated; HRP anti-human Fc
Experimental: as §1

EC50	Binder
1.46 nM	B18
1.25 nM	B19
0.817 nM	B20
1.03 nM	B22
1.33 nM	B23
1.35 nM	B24
1.21 nM	B21
